# According to patent US6677124:
# Columns and labels:
# [1] = molecular target: monoclonal antibody BC203; test: competitive radioimmunoassay: unlabeled hBNP against 125I-labeled Tyr0-hBNP on BC203 (ascites BC203A diluted 42,000-fold), PEG precipitation
# [2] = molecular target: human brain natriuretic peptide (hBNP) (human); test: Scatchard plot from the hBNP standard curve of the radioimmunoassay
# human brain natriuretic peptide (hBNP) (human), sequence (peptide, as listed by the source): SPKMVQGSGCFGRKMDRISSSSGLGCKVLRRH
# human brain natriuretic peptide (hBNP), sequence (peptide): as the sequence (peptide, as listed by the source) above
90% inhibitory concentration [1],IC50 [1],Ka [2],Substance
1.3 ng/mL,0.0118 µg/mL,–,human brain natriuretic peptide (hBNP)
–,–,1.3e+09 M⁻¹,monoclonal antibody BC203
